Laboratory results: patent US9486502B2, “Methods of administering interferon gamma to absorb fluid from the subretinal space” (The United States of America, as represented by the …, priority 2008, dated 2016)

How the values were obtained:
[1] = tested on: hfRPE cells; test: BrdU incorporation assay, hfRPE proliferation; format: cell-based, human
Procedure: BrdU incorporation was performed as described in Li, R. et al., 2007, Invest Ophthalmol Vis Sci, 48, 5722-5732, incorporated by reference in its entirety herein. IFNγ, TNFα, and IL-1β were obtained from Peprotech, Rocky Hill, N.J., and Universal Type I Interferon (cat: 11200-1) or human interferon beta la were from PBL biomedical laboratories (New Brunswick, N.J.). Cumulative effects were measured by adding VEGF165, EGF and bFGF (Peprotech), and PDGF-BB (R & D Systems) with IFNγ. Anti-human IFNγ R1 blocking antibody (R & D Systems, Minneapolis, Minn.), JAK inhibitor I, AG490, or JAK3 inhibitor II (EMD Biosciences, Gibbstown, N.J.) was added to the cells one hour prior to the addition of IFNγ. SFM was used as the negative control and SFM supplemented with 5% serum was used as positive control. After treatment for 48 hours, RPE cells were incubated with BrdU for 24 hours. The proliferation rate was evaluated using a Cell proliferation ELISA BrdU Kit (Roche, Ind.). Quadruplicate wells were used for each condition and the experiments were repeated at least two times using cell cultures from different donors. Cell viability was evaluated using a Live/Dead Viability/Cytotoxicity Kit (Invitrogen).

[2] = Phase I study of topical interferon gamma-1b in CME secondary to uveitis (OCT macular thickness); format: in vivo, human; conditions: based on therapeutic treatment of topical IFNα
Text: To test whether cystoid macular edema (CME), secondary to uveitis, is caused by the disequilibrium of the Jak/Stat and mTor signal transduction pathways in the retinal pigment epithelium (RPE), interferon gamma-1β topically applied in human patients. Five participants with CME secondary to uveitis receive a topical ocular instillation of interferon gamma-1b in a Phase I, non-randomized, prospective, uncontrolled, dose-escalation, single-center study. The study involves a one-time instillation or series of instillations of interferon gamma-1b on the cornea and measurement of a response with optical coherence tomography (OCT) over a three hour period.
A 25% decrease in macular thickness is observed at a post-instillation as compared to baseline. In the study, the first two participants receive one instillation (each instillation contains […] in 0.05 mL solution) on the cornea at time zero, the next two participants receive two instillations, 10 minutes apart, for a total dosage of 20 μg, and the final participant receives three instillations, 10 minutes apart, for a total of 30 μg. OCT will be obtained at −60 minutes, −30 minutes and just before the instillation(s). […]
Participants with CME secondary to uveitis are treated with ocular instillation(s) of interferon gamma-1b. […] The effect on the retinal thickness is measured using OCT measurements as indicated below. […]

[3] = tested on: hfRPE monolayers; test: electrophysiology of hfRPE monolayers (TEP, RT, VA, VB, RA/RB); format: cell-based, human
Text: Equivalent circuit analysis and electrophysiological methods have been previously described in Quinn, R. H., et al., Invest Ophthalmol Vis Sci, 1992, 33, 3513-3527; Joseph D. P., et al., J Physiol, 1991, 435, 439-463; and Maminishkis, A., et al., 2006, Ophthalmol Vis Sci, 47, 3612-3624each incorporated herein by reference in its entirety.
Briefly, confluent monolayers of cultured hfRPE were mounted on a nylon mesh support and clamped into a modified Üssing chamber that allowed the rapid exchange of Ringer's solution (≈10 chamber volumes per minute) and the measurement of fast electrical changes in seconds. The electrical connections to the apical and basal chambers were made with Ringer-agar bridges in series with calomel electrodes. Intracellular potentials were recorded with conventional microelectrodes, back-filled with 150 mM KCl, with resistances of 80 to 200 Ma The apical and basolateral membrane potentials (VA and VB) are calculated as the voltage differences between the intracellular microelectrode and the apical and basal bath electrodes, respectively. The resistances of the apical and basolateral membranes were designated RA and RB, respectively, and the transepithelial potential (TEP=VB-VA) is the voltage difference between the apical and basal bath electrodes. Epithelial resistance parameters were obtained by passing 4-μA bipolar current pulses (i) using Ag—AgCl electrodes, one located in the apical chamber and the other located in the basal chamber. The total transepithelial resistance (Rt) is calculated from the current-induced changes in TEP (Rt=ΔTEP/i). The apparent membrane resistance ratio (RA/RB) is calculated from the ratio of change in VA to change in VB (RA/RB=ΔVA/ΔVB).
The control Ringer's solution for measurements of TEP and Rt in culture hfRPE contained 116 mM NaCl, 5 mM KCl, 26.2 mM NaHCO3, 1 mM NaH2PO4, 1 mM Mg Cl2, 1.8 mM CaCl2, 10 mM glucose, and 2 mM Taurine. The osmolarity of control Ringer's solution was 295 mOsm. The solutions were maintained at 35° C. and a pH of 7.4, and were bubbled with 10% O2, 5% CO2 and 85% N2. 8-Bromo-cAMP (or Dibutyryl cAMP), 8-Br-cGMP, and forskolin were obtained from Sigma-Aldrich.

[4] = IFNγ 100 ng/ml apical and basal, FIG. 17A
[5] = IFNγ 500 ng/mL apical and basal, FIG. 22

B1: IFNγ: pleiotropic cytokine produced by T- and NK-cells; obtained from Peprotech (protein, UniProt P01579 24-161, looked up)
Interferon gamma: QDPYVKEAENLKKYFNAGHSDVADNGTLFLGILKNWKEESDRKIMQSQIVSFYFKLFKNFKDDQSIQKSVETIKEDMNVKFFNSNKKKRDDFEKLTNYSVTDLNVQRKAIHELIQVMAELSPAAKTGKRKRSQMLFRG
- effect on hfRPE proliferation (BrdU incorporation) ([1]; 0.5-80 ng/ml): strong inhibitory effect
- effect on hfRPE proliferation induced by bFGF, PDGF-BB, VEGF ([1]; IFNγ 5 ng/ml): significantly inhibited
- effect on hfRPE cell proliferation ([1]; IFNγ alone 5 ng/ml, 5% FBS or 0% FBS): significantly inhibited
- concentration as low as which hfRPE proliferation was inhibited ([1]; other experiments, data not shown): 0.02 ng/mL
- tolerability of topically applied IFNγ [2]: well-tolerated
- RT decrease [3, 4]: 15 Ω·cm^2
- TEP increase [3, 4]: 0.9 mV
- depolarization of both VA and VB [3, 5]: approximately 2.5 mV
- increase in RA/RB [3, 5]: 0.2
- increase in TEP [3, 5]: 0.3 mV
- ΔRT (decrease) ([3]; IFNγ, mean of experiments): 17±2 Ω·cm^2
- ΔTEP (increase) ([3]; IFNγ, mean of experiments): 0.5±0.1 mV
